Experimental findings from PMC10556615 (Proceedings of the National Academy of Sciences of the …, 2023) are described below.

For this assay, the target named is T1, Arabidopsis TIR1 (Transport Inhibitor Response 1), coexpressed with AtASK1 (Arabidopsis, UniProt Q570C0 1-594; Q39255 1-160).
T1 construct: a TEV site stands between the tags and TIR1; ASK1 (AtASK1), Arabidopsis, coexpressed with TIR1; a TEV site stands between the tag and ASK1; that the sample is the TIR1-ASK1 complex is surmised from the coexpression; Cleavage with TEV is not mentioned; also called AtTIR1; His10-eGFP-FLAG-(TEV)-AtTIR1
T1 sequence (looked up) 1: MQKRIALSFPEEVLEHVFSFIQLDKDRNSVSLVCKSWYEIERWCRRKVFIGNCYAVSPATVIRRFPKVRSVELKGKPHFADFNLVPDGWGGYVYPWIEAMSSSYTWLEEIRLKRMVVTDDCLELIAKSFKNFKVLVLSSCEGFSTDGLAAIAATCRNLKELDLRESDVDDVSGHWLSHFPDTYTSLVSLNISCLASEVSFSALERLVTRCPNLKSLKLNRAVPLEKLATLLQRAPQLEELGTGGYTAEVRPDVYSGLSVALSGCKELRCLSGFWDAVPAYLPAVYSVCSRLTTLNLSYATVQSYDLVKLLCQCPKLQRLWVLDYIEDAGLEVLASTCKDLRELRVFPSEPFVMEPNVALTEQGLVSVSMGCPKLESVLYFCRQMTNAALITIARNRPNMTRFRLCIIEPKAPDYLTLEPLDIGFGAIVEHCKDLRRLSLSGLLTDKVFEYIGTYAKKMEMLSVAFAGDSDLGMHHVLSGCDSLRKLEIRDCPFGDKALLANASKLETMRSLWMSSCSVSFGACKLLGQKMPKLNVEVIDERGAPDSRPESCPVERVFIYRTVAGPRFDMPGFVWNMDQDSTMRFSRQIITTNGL
T1 sequence (looked up) 2: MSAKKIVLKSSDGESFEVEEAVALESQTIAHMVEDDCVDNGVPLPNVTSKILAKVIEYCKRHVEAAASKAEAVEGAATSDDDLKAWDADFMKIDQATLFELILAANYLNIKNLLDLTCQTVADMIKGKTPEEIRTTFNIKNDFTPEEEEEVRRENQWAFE
The assay can be described thus: NMR titration; 1H-15N HSQC of 15N-labeled AXR3 DI/DII with unlabeled TIR1 added, 1:3 ratio, 5 to 10 µM TIR1, 4 °C, 20 mM sodium phosphate pH 6.0, 150 mM NaCl, 3 mM EDTA, 10 mM DTT; loss of HN cross peak intensity; no auxin. Particulars: both partners purified.

B1: AXR3 DI/DII (N-terminal half of the Aux/IAA protein IAA17/AXR3, residues 1 to 101) (domain or fragment, UniProt P93830 1-101, looked up)
chain: MMGSVELNLRETELCLGLPGGDTVAPVTGNKRGFSETVDLKLNLNNEPANKEGSTTHDVVTFDSKEKSACPKDPAKPPAKAQVVGWPPVRSYRKNVMVSCQ
modifications: 15N isotopically labeled
notes: AXR3 (IAA17), Aux/IAA protein, domains I and II (DI/DII), residues 1 to 101, without the C-terminal PB1 domain; also called AXR3_(1-101); N-terminal half of AXR3; source: E. coli Rosetta DE3, minimal media with 15N ammonium chloride, purified (Co-NTA)
B1: the binding result is recorded as “binds”.
